Results as given in patent publication US20180155413A1 (AstraZeneca / MedImmune, published 2018).

What was measured:
Assay in all cases: cell-based or functional assay
HA of B/Lee/40 = HA of B/Lee/40 (influenza B virus, UniProt P03460 16-584)
[1] = molecular target: HA of ca B/Ann Arbor/1/66 (influenza B virus)
HA of B/Hong Kong/5/72 = HA of B/Hong Kong/5/72 (influenza B virus)
[2] = molecular target: HA of B/Hong Kong/330/2001 (victoria) (influenza B virus)
[3] = molecular target: HA of B/Yamagata/16/88 (yamagata) (influenza B virus)
[4] = molecular target: HA of ca B/Ann Arbor/2/94 (yamagata) (influenza B virus)
[5] = molecular target: HA of ca B/Georgia/02/98 (yamagata) (influenza B virus)
[6] = molecular target: HA of ca B/Johannesburg/5/99 (yamagata) (influenza B virus)
[7] = molecular target: HA of ca B/Victoria/504/2000 (yamagata) (influenza B virus)
[8] = molecular target: HA protein derived from A/South Dakota/6/2007 H1N1, on stably transfected MDCK cells (influenza A virus)

Chain of HA of B/Lee/40 (P03460 16-584 limits assumed): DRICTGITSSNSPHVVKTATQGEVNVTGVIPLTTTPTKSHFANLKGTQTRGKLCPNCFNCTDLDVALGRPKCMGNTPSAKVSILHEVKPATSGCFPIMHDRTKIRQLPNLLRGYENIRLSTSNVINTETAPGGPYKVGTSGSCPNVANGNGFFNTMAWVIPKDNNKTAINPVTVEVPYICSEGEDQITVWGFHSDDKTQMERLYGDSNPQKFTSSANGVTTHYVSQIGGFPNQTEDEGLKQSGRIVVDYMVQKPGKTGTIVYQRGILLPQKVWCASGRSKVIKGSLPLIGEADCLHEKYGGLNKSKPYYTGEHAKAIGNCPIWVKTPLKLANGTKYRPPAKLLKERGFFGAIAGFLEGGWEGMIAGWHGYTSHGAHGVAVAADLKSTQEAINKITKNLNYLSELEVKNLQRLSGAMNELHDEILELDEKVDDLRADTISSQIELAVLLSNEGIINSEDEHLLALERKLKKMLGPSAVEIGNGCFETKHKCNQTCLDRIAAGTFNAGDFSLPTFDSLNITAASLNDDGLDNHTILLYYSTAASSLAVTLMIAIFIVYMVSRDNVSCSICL

B1: GL20/39 BiS4 100/44 (bispecific antibody)
light: DIQMTQSPSSLSASVGDRVTITCRTSQSLSSYTHWYQQKPGKAPKLLIYAASSRGSGVPSRFSGSGSGTDFTLTISSLQPEDFATYYCQQSRTFGQGTKVEIKRTVAAPSVFIFPPSDEQLKSGTASVVCLLNNFYPREAKVQWKVDNALQSGNSQESVTEQDSKDSTYSLSSTLTLSKADYEKHKVYACEVTHQGLSSPVTKSFNRGEC
heavy: not shown
Hemagglutination Inhibition Titer (HA of B/Lee/40): 61 nM
Hemagglutination Inhibition Titer [1]: 244 nM
Hemagglutination Inhibition Titer (HA of B/Hong Kong/5/72): 244 nM
Hemagglutination Inhibition Titer [2]: 244 nM
Hemagglutination Inhibition Titer [3]: 122 nM
Hemagglutination Inhibition Titer [4]: 61 nM
Hemagglutination Inhibition Titer [5]: 122 nM
Hemagglutination Inhibition Titer [6]: 122 nM
Hemagglutination Inhibition Titer [7]: 61 nM

B2: GL20 IgG (antibody, V domains shown)
VH: QVQLQQSGPGLVKPSQTLSLTCAISGDSVSSYNAVWNWIRQSPSRGLEWLGRTYYRSGWYNDYAESVKSRITINPDTSKNQFSLQLNSVTPEDTAVYYCARSGHITVFGVNVDAFDMWGQGTMVTVSS
VL: DIQMTQSPSSLSASVGDRVTITCRTSQSLSSYTHWYQQKPGKAPKLLIYAASSRGSGVPSRFSGSGSGTDFTLTISSLQPEDFATYYCQQSRTFGQGTKVEIK
EC50 (read off the curve), ADCP % double positive [8]: ~0.04 nM
